From patent publication US6703237B2, “Methods and formulations for mediating adeno-associated virus (AAV) attachment and infection and methods for purifying AAV” (priority 1998, dated 2004)

Assays:
rAAV-LacZ = experiment: Inhibition of rAAV-LacZ transduction of HeLa cells by soluble GAGs; format: cell-based, AAV-2; conditions: 30 μg/ml GAG; HeLa cells; 44 h post-infection
Protocol: FIGS. 1A and 1B illustrate the inhibition of AAV infection by various glycosaminoglycans. In the data shown in FIG. 1A, rAAV was incubated with the indicated concentrations of heparin (solid squares), chondroitin sulfate B (dermatan sulfate) (open circles), chondroitin sulfate A (open diamonds) or chondroitin sulfate C (open triangles) for 1 hour at 37° C. prior to a 1-hour adsorption period of the virus/GAG mixture to HeLa cells for infection. β-galactosidase activity was assayed 44 hours post-infection using a Galacto-Light Plus kit (Tropix Inc.), and measured in a luminometer. Each point denotes the average % decrease in Relative Light Units (RLU) per ug of protein relative to the maximum RLU/μg protein obtained in experiments without GAG. In the data shown in FIG. 1B, HeLa cells were preincubated with increasing concentrations of heparin at 37° C. for 1 hour. After thorough washing, cells were infected with rAAV as described above. Data points represent the average % maximum RLU/ug protein obtained without heparin preincubation.
rAAV-LacZ at an MOI of 2 was incubated in DMEM-H media in the presence or absence of indicated soluble GAGs at 1.0, 5.0, 10, 20, 30 μg/ml for 1 h at 37° C. For infection, rAAV-LacZ or the virus/GAG mixture was incubated with 2×10^5 HeLa cells for 1 h at 37° C. in a 5% CO2 chamber. […]

3H-wt AAV-2 = experiment: Inhibition of 3H-wt AAV-2 binding to HeLa cells by soluble GAGs; conditions: 30 μg/ml, 90 min at 4° C.
Protocol: FIG. 2 illustrates that soluble heparin inhibits binding of AAV to the cell surface. After pre-incubation of 3H-wt AAV-2 with increasing concentrations of the indicated GAGs or the GAG analogue dextran sulfate, labeled virus was adsorbed to HeLa cells for 90 minutes at 4° C. Unbound virus was removed by three washes with ice cold binding buffer and radioactivity was quantitated as described in methods. Data is represented as the average % inhibition relative to the CPM bound in the absence of soluble GAG.
(§1) For direct binding assays, ^3H-labeled wtAAV-2 was incubated with cells either attached to plates or in suspension, as indicated, at a ratio of 4×10^11 particles/3×10^5 cells for 90 minutes at 4° C. in HBSB. Cells were then washed 3 times in ice cold HBSB to remove unbound virus, and were solubilized in 0.3 N NaOH. After neutralization with glacial acetic acid, cell-associated radioactivity was quantitated in a scintillation counter. For inhibition studies, and after enzymatic treatments, ^3H-AAV was bound to adherent HeLa cells. Binding to wild type CHO and CHO cell mutants was done with suspended cells. […] Non-specific binding was determined in the presence of 100-fold excess unlabeled wt AAV (previously dialyzed in HBS, 10% glycerol). Binding of Cy3-labeled virus was done on wild type CHO and pgsA-745 cells grown on coverslips. After fixation in 4% paraformaldehyde for 20 minutes at room temperature, cells were mounted on slides and bound Cy3 labeled virus was detected by confocal microscopy. […]
To further examine the observed specificity and to determine whether GAGs were inhibiting binding of the AAV virions to the cell surface, ^3H-wt AAV was incubated with GAGs (heparin, dermatan sulfate, chondroitin sulfate A, chondroitin sulfate C, dextran sulfate) at various concentrations. After incubation with cells, the mixture was washed and cells were solubilized to quantify bound virus. […]

[1] = test system: cell surface glycosaminoglycans of HeLa cells; experiment: 3H-AAV binding to HeLa cells after GAG lyase digestion of cell surface GAGs; conditions: maximum concentration of enzyme tested
Protocol: (§2) FIGS. 3A and 3B illustrate the effect of enzymatic digestion of cell surface glycosaminoglycans on AAV binding and infection. In the data shown in FIG. 3A, HeLa cells were treated with the indicated concentrations of the following GAG lyases: heparitinase (solid squares), heparinase I (open diamonds), chondroitinase ABC (open circles), or chondroitinase AC (open triangles), as described in Example 13, below. After thorough washing, the ability of AAV to bind the cell surface was assessed as described in Example 12, below. Data points represent the average % reduction in AAV binding relative to AAV binding obtained without enzymatic treatment. In the data shown in FIG. 3B, HeLa cells were treated with heparitinase or heparinase I as described herein. After thorough washing, rAAV was incubated with cells for a I hour adsorption period at 37° C. Cells were harvested 44 hours post-infection and assayed for β-galactosidase activity. Results are shown as the average % reduction in AAV transduction relative to transduction observed in the absence of enzymatic treatment. Data points represent the mean and standard deviation of experiments performed in triplicate.
as §1
GAG lyases were reconstituted in phosphate buffered saline (PBS). […] Prior to use, each enzyme was tested for activity by a standard method used to determine specific activity of GAG lyases, except that enzyme activity was monitored under the conditions used for digestion, PBS pH 7.4 at 37° C. […]
Subconfluent HeLa cells were treated with various concentrations of each specific enzyme and assessed for ^3H-AAV binding.

[2] = test system: cell surface glycosaminoglycans of HeLa cells; experiment: rAAV-LacZ transduction of HeLa cells after GAG lyase digestion; format: cell-based; conditions: for reduction of rAAV transduction compared to untreated control cells: HeLa cells treated with various concentrations of enzyme
Protocol: as §2
GAG lyases were reconstituted in phosphate buffered saline (PBS). For enzymatic digestion of cell surface GAGs, 3×10^4 HeLa cells were washed and incubated with the indicated concentrations of GAG lyases in PBS containing 0.1%BSA, 0.2% gelatin and 0.1% glucose (digestion buffer) for 1 hour at 37° C. in a 5% CO2 chamber. Cells were then washed four times with digestion buffer and subjected to rAAV infection as described above. Prior to use, each enzyme was tested for activity by a standard method used to determine specific activity of GAG lyases, except that enzyme activity was monitored under the conditions used for digestion, PBS pH 7.4 at 37° C. (Linhardt, (1994) Analysis of glycosaminoglycans with polysaccharide lyases, p. 17.13.17-17.13.32. in K. Janssen (ed.), Current Protocols in Molecular Biology, vol. 3. John Wiley & Sons, Inc., New York). Cells remained attached to the plate after all enzymatic treatments. […]

Row | Molecule | inhibition of AAV binding (3H-wt AAV-2) | reduction of 3H-AAV binding to the cell surface after enzymatic treatment [1] | reduction of rAAV transduction compared to untreated control cells [2] | other results
1 | chondroitin sulfate B | 51% |  |  | inhibition of rAAV transduction (β-galactosidase activity) (rAAV-LacZ): 71%
2 | chondroitinase ABC |  | did not result in any reduction |  | 
3 | dextran sulfate | 36% |  |  | 
4 | chondroitinase AC: GAG lyase from Seikagagku; cleaves only chondroitin sulfate type A and C (protein, UniProt Q59288 23-700, looked up) Chondroitinase-AC: QQTGTAELIMKRVMLDLKKPLRNMDKVAEKNLNTLQPDGSWKDVPYKDDAMTNWLPNNHLLQLETIIQAYIEKDSHYYGDDKVFDQISKAFKYWYDSDPKSRNWWHNEIATPQALGEMLILMRYGKKPLDEALVHKLTERMKRGEPEKKTGANKTDIALHYFYRALLTSDEALLSFAVKELFYPVQFVHYEEGLQYDYSYLQHGPQLQISSYGAVFITGVLKLANYVRDTPYALSTEKLAIFSKYYRDSYLKAIRGSYMDFNVEGRGVSRPDILNKKAEKKRLLVAKMIDLKHTEEWADAIARTDSTVAAGYKIEPYHHQFWNGDYVQHLRPAYSFNVRMVSKRTRRSESGNKENLLGRYLSDGATNIQLRGPEYYNIMPVWEWDKIPGITSRDYLTDRPLTKLWGEQGSNDFAGGVSDGVYGASAYALDYDSLQAKKAWFFFDKEIVCLGAGINSNAPENITTTLNQSWLNGPVISTAGKTGRGKITTFKAQGQFWLLHDAIGYYFPEGANLSLSTQSQKGNWFHINNSHSKDEVSGDVFKLWINHGARPENAQYAYIVLPGINKPEEIKKYNGTAPKVLANTNQLQAVYHQQLDMVQAIFYTAGKLSVAGIEIETDKPCAVLIKHINGKQVIWAADPLQKEKTAVLSIRDLKTGKTNRVKIDFPQQEFAGATVELK |  | did not result in any reduction |  | 
5 | heparinase: GAG lyase purchased from Sigma; cleaves linkages found in heparan sulfate (protein, UniProt Q05819 22-384, looked up) Heparin lyase I: QQKKSGNIPYRVNVQADSAKQKAIIDNKWVAVGINKPYALQYDDKLRFNGKPSYRFELKAEDNSLEGYAAGETKGRTELSYSYATTNDFKKFPPSVYQNAQKLKTVYHYGKGICEQGSSRSYTFSVYIPSSFPDNATTIFAQWHGAPSRTLVATPEGEIKTLSIEEFLALYDRMIFKKNIAHDKVEKKDKDGKITYVAGKPNGWKVEQGGYPTLAFGFSKGYFYIKANSDRQWLTDKADRNNANPENSEVMKPYSSEYKTSTIAYKMPFAQFPKDCWITFDVAIDWTKYGKEANTILKPGKLDVMMTYTKNKKPQKAHIVNQQEILIGRNDDDGYYFKFGIYRVGNSTVPVTYNLSGYSETAR |  | 66% | 80% | 
6 | heparitinase: GAG lyase purchased from Sigma; cleaves linkages found in heparan sulfate (protein, UniProt Q59289 25-659, looked up) Heparin-sulfate lyase: QSSSITRKDFDHINLEYSGLEKVNKAVAAGNYDDAAKALLAYYREKSKAREPDFSNAEKPADIRQPIDKVTREMADKALVHQFQPHKGYGYFDYGKDINWQMWPVKDNEVRWQLHRVKWWQAMALVYHATGDEKYAREWVYQYSDWARKNPLGLSQDNDKFVWRPLEVSDRVQSLPPTFSLFVNSPAFTPAFLMEFLNSYHQQADYLSTHYAEQGNHRLFEAQRNLFAGVSFPEFKDSPRWRQTGISVLNTEIKKQVYADGMQFELSPIYHVAAIDIFLKAYGSAKRVNLEKEFPQSYVQTVENMIMALISISLPDYNTPMFGDSWITDKNFRMAQFASWARVFPANQAIKYFATDGKQGKAPNFLSKALSNAGFYTFRSGWDKNATVMVLKASPPGEFHAQPDNGTFELFIKGRNFTPDAGVFVYSGDEAIMKLRNWYRQTRIHSTLTLDNQNMVITKARQNKWETGNNLDVLTYTNPSYPNLDHQRSVLFINKKYFLVIDRAIGEATGNLGVHWQLKEDSNPVFDKTKNRVYTTYRDGNNLMIQSLNADRTSLNEEEGKVSYVYNKELKRPAFVFEKPKKNAGTQNFVSIVYPYDGQKAPEISIRENKGNDFEKGKLNLTLTINGKQQLVLVP |  | 73% | 80% | reduction of AAV infection ([2]; 0.425 mIU/ml enzyme, HeLa cells): up to 72%
